Measurements taken from article PMC11034791.

Biological target: Neuropeptide Y (NPY) (UniProt P01303 29-64)
Experiment: electrochemical impedance spectroscopy

B1: NPY aptamer (80-base ssDNA) (ssDNA)
DNA: AGCAGCACAGAGGTCAGATGCAAACCACAGCCTGAGTGGTTAGCGTATGTCATTTACGGACCTATGCGTGCTACCGTGAA
modifications: 5' disulfide C6 (reduced to thiol), immobilized on Au
B1: binds.
